The test concerns the target calmodulin-Sepharose, P0DP23. As to the kind of experiment: pull-down. Particulars: remark: other sources report otherwise.

B1: purified recombinant human LATS1 (active kinase), O95835 1-1130 (enzyme)
chain: MKRSEKPEGYRQMRPKTFPASNYTVSSRQMLQEIRESLRNLSKPSDAAKAEHNMSKMSTEDPRQVRNPPKFGTHHKALQEIRNSLLPFANETNSSRSTSEVNPQMLQDLQAAGFDEDMVIQALQKTNNRSIEAAIEFISKMSYQDPRREQMAAAAARPINASMKPGNVQQSVNRKQSWKGSKESLVPQRHGPPLGESVAYHSESPNSQTDVGRPLSGSGISAFVQAHPSNGQRVNPPPPPQVRSVTPPPPPRGQTPPPRGTTPPPPSWEPNSQTKRYSGNMEYVISRISPVPPGAWQEGYPPPPLNTSPMNPPNQGQRGISSVPVGRQPIIMQSSSKFNFPSGRPGMQNGTGQTDFMIHQNVVPAGTVNRQPPPPYPLTAANGQSPSALQTGGSAAPSSYTNGSIPQSMMVPNRNSHNMELYNISVPGLQTNWPQSSSAPAQSSPSSGHEIPTWQPNIPVRSNSFNNPLGNRASHSANSQPSATTVTAITPAPIQQPVKSMRVLKPELQTALAPTHPSWIPQPIQTVQPSPFPEGTASNVTVMPPVAEAPNYQGPPPPYPKHLLHQNPSVPPYESISKPSKEDQPSLPKEDESEKSYENVDSGDKEKKQITTSPITVRKNKKDEERRESRIQSYSPQAFKFFMEQHVENVLKSHQQRLHRKKQLENEMMRVGLSQDAQDQMRKMLCQKESNYIRLKRAKMDKSMFVKIKTLGIGAFGEVCLARKVDTKALYATKTLRKKDVLLRNQVAHVKAERDILAEADNEWVVRLYYSFQDKDNLYFVMDYIPGGDMMSLLIRMGIFPESLARFYIAELTCAVESVHKMGFIHRDIKPDNILIDRDGHIKLTDFGLCTGFRWTHDSKYYQSGDHPRQDSMDFSNEWGDPSSCRCGDRLKPLERRAARQHQRCLAHSLVGTPNYIAPEVLLRTGYTQLCDWWSVGVILFEMLVGQPPFLAQTPLETQMKVINWQTSLHIPPQAKLSPEASDLIIKLCRGPEDRLGKNGADEIKAHPFFKTIDFSSDLRQQSASYIPKITHPTDTSNFDPVDPDKLWSDDNEEENVNDTLNGWYKNGKHPEHAFYEFTFRRFFDDNGYPYNYPKPIEYEYINSQGSEQQSDEDDQNTGSEIKNRDLVYV
B1: the percent reduction of binding with EGTA against Ca2+ came to 70.9%.

B2: large tumor suppressor 1 kinase (endogenous, HEK293 cells), O95835 1-1130 (enzyme)
chain: MKRSEKPEGYRQMRPKTFPASNYTVSSRQMLQEIRESLRNLSKPSDAAKAEHNMSKMSTEDPRQVRNPPKFGTHHKALQEIRNSLLPFANETNSSRSTSEVNPQMLQDLQAAGFDEDMVIQALQKTNNRSIEAAIEFISKMSYQDPRREQMAAAAARPINASMKPGNVQQSVNRKQSWKGSKESLVPQRHGPPLGESVAYHSESPNSQTDVGRPLSGSGISAFVQAHPSNGQRVNPPPPPQVRSVTPPPPPRGQTPPPRGTTPPPPSWEPNSQTKRYSGNMEYVISRISPVPPGAWQEGYPPPPLNTSPMNPPNQGQRGISSVPVGRQPIIMQSSSKFNFPSGRPGMQNGTGQTDFMIHQNVVPAGTVNRQPPPPYPLTAANGQSPSALQTGGSAAPSSYTNGSIPQSMMVPNRNSHNMELYNISVPGLQTNWPQSSSAPAQSSPSSGHEIPTWQPNIPVRSNSFNNPLGNRASHSANSQPSATTVTAITPAPIQQPVKSMRVLKPELQTALAPTHPSWIPQPIQTVQPSPFPEGTASNVTVMPPVAEAPNYQGPPPPYPKHLLHQNPSVPPYESISKPSKEDQPSLPKEDESEKSYENVDSGDKEKKQITTSPITVRKNKKDEERRESRIQSYSPQAFKFFMEQHVENVLKSHQQRLHRKKQLENEMMRVGLSQDAQDQMRKMLCQKESNYIRLKRAKMDKSMFVKIKTLGIGAFGEVCLARKVDTKALYATKTLRKKDVLLRNQVAHVKAERDILAEADNEWVVRLYYSFQDKDNLYFVMDYIPGGDMMSLLIRMGIFPESLARFYIAELTCAVESVHKMGFIHRDIKPDNILIDRDGHIKLTDFGLCTGFRWTHDSKYYQSGDHPRQDSMDFSNEWGDPSSCRCGDRLKPLERRAARQHQRCLAHSLVGTPNYIAPEVLLRTGYTQLCDWWSVGVILFEMLVGQPPFLAQTPLETQMKVINWQTSLHIPPQAKLSPEASDLIIKLCRGPEDRLGKNGADEIKAHPFFKTIDFSSDLRQQSASYIPKITHPTDTSNFDPVDPDKLWSDDNEEENVNDTLNGWYKNGKHPEHAFYEFTFRRFFDDNGYPYNYPKPIEYEYINSQGSEQQSDEDDQNTGSEIKNRDLVYV
The molecule B2 displayed a fold more bound with Ca2+ than with EGTA of 11 fold.

These data come from PMC9019248.
